# According to paper PMC4604100, “Melanocortin agonists stimulate lipolysis in human adipose tissue explants but not in adipocytes” (BMC Research Notes, 2015):
# Experiments:
# Details in all cases: modification not given
# [1] = molecular target: Melanocortin receptor 3 (Homo sapiens), P41968; assay: competition
# [2] = molecular target: Melanocortin receptor 5 (Homo sapiens), P33032; assay: competition
# [3] = molecular target: Melanocortin receptor 4 (Homo sapiens), P32245; assay: competition
# [4] = molecular target: Melanocortin receptor 1 (Homo sapiens), Q01726; assay: 125I-NDP-α-MSH competition binding (membrane filtration)
# Chain of Melanocortin receptor 1 (Homo sapiens), Q01726 (Q01726 whole entry): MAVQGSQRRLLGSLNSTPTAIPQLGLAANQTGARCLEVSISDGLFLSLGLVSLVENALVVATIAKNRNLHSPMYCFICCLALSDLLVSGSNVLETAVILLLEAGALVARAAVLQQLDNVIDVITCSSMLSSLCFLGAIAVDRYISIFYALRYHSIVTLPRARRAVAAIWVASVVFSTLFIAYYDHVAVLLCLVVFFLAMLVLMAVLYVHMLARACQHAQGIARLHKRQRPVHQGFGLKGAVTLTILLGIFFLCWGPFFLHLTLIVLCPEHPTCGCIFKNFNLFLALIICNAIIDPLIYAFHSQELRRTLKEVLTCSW
# Chain of Melanocortin receptor 5 (Homo sapiens), P33032 (P33032 whole entry): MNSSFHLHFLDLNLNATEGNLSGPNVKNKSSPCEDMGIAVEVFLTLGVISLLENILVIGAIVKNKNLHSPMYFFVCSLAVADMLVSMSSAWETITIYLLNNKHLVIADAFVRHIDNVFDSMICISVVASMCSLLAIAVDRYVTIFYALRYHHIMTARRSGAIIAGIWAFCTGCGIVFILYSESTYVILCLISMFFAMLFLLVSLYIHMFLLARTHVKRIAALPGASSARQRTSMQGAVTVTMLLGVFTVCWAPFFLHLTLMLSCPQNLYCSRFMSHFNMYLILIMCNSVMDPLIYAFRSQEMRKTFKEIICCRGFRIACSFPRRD
# Chain of Melanocortin receptor 4 (Homo sapiens), P32245 (P32245 whole entry): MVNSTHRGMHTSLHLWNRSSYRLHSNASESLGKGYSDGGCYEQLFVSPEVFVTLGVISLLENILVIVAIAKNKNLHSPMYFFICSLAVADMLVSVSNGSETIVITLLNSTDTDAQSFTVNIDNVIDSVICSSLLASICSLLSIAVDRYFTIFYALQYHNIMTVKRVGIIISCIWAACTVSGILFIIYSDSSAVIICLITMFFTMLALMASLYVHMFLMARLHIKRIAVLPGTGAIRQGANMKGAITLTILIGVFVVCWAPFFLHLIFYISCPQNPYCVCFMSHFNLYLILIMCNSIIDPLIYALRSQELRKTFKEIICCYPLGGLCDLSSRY
# Chain of Melanocortin receptor 3 (Homo sapiens), P41968 (P41968 whole entry): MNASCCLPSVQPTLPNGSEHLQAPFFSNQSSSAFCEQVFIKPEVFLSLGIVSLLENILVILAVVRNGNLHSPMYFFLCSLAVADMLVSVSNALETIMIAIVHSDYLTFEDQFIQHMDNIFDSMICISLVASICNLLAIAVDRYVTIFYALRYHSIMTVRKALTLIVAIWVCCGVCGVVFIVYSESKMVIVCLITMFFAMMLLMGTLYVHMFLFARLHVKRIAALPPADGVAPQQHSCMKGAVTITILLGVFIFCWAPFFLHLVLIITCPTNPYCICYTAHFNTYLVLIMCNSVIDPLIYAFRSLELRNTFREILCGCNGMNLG
binder,measurement,setting,value
"SYSMEHFRWGKPVGKKRRPVKVYPNGAEDESAEAFPLEF [ACTH, P01189]",Ki,[1],11.1 nM
same,Ki,[2],46 nM
same,Ki,[3],1.2 nM
same,Ki,[4],0.09 nM
